Substrate in the data set: Nc1ncnc2c1ncn2[C@@H]1O[C@H](CO)[C@@H](O)[C@H]1O
The data set is described as follows: UV spectrophotometric deamination kinetics. It is filed as biochemical, Plasmodium vivax. To be noted: zinc.

B1: P. vivax adenosine deaminase (pvADA) (Plasmodium vivax Sal-1) (protein)
chain: MNILQEPIDFLKKEELKNIDLSQMSKKERYKIWKRIPKCELHCHLDLCFSADFFVSCIRKYNLQPNLSDEEVLDYYLFAKGGKSLGEFVEKAIKVADIFHDYEVIEDLAKHAVFNKYKEGVVLMEFRYSPTFVAFKYNLDIELIHQAIVKGIKEVVELLDHKIHVALMCIGDTGHEAANIKASADFCLKHKADFVGFDHGGHEVDLKEYKEIFDYVRESGVPLSVHAGEDVTLPNLNTLYSAIQVLKVERIGHGIRVAESQELIDMVKEKNILLEVCPISNVLLKNAKSMDTHPIRQLYDAGVKVSVNSDDPGMFLTNINDDYEELYTHLNFTLEDFMKMNEWALEKSFMDSNIKDKIKNLYF
With B1, the Km is 71 ± 16 µM.

Usually Km stands for the substrate concentration at which the rate is half of its maximum.

The values are drawn from article PMC3327807.
